Laboratory results as given in US20110091994A1, “Methods for Screening Compounds for Treating and/or Preventing an Hepatitis C Virus Infection” (priority 2008, published 2011).
Like-named read-outs stand apart in the source and are kept apart here.

Assays:
[1] = biological target: T1, HCV ORFs (Gal4-DB fusions) (Hepatitis C virus genotype 1b, UniProt Q9WMX2); assay type: binding, HCV genotype 1b, isolate con1; conditions: human protein as prey
T1 construct: expressed in transfected cells; host or cells: Saccharomyces cerevisiae MAV203 (IMAP1) / AH109 (IMAP2)

[2] = test system: HCV ORFs (Gal4-DB fusions); assay type: binding, HCV genotype 1b, isolate con1; conditions: human protein listed by gene symbol; the value names the HCV protein it interacts with
[3] = biological target: T2, HCV proteins (Hepatitis C virus genotype 1b, UniProt Q9WMX2); test: Validation by Y2H pairwise matrices; assay type: binding;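 also: yeast two-hybrid pairwise tests of interactions first found in Y2H screens of HCV bait proteins against human cDNA libraries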
T2 construct: expressed in transfected cells

[4] = validation of interaction with HCV protein NS3
[5] = interaction with HCV protein p7
[6] = validation of interaction with HCV protein CORE
[7] = interaction with HCV protein NS5B
[8] = validation of interaction with HCV protein E1
[9] = validation of interaction with HCV protein E2
[10] = validation of interaction with HCV protein NS2
[11] = validation of interaction with HCV protein NS4A
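For IMAP Y2H IMAP1 (number of IST) in this document: yeast two-hybrid screens using HCV genotype 1b proteins fused to Gal4-DB as baits against prey cDNA libraries from human spleen and foetal brain, IMAP1 via transformation and IMAP2 via mating.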
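For IMAP Y2H IMAP2 (number of IST) in this document: yeast two-hybrid screens using HCV genotype 1b proteins fused to Gal4-DB as baits against prey cDNA libraries from human spleen and foetal brain, IMAP1 via transformation and IMAP2 via mating.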
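For Interaction with viral protein in this document: yeast two-hybrid screens using HCV genotype 1b proteins fused to Gal4-DB as baits against prey cDNA libraries from human spleen and foetal brain, IMAP1 via transformation and IMAP2 via mating.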

Row | Substance | IMAP Y2H IMAP1 (number of IST) ([1]; HCV protein NS3 as bait) | Interaction with viral protein [2] | Y2H matrices [3, 4] | other results
1 | JAG2 | 1 | NS3 | + | 
2 | ANKRD12 | 1 | NS3 | + | 
3 | KIAA1549 | 1 | NS3 | + | 
4 | CFP | 4 | NS3 | + | 
5 | SYNE1 |  | NS3 |  | IMAP Y2H IMAP2 (number of IST) ([1]; HCV protein NS3 as bait): 4
6 | MVP | 1 | NS3 | + | 
7 | LAMA5 | 1 | NS3 | + | 
8 | UBQLN4 |  |  |  | IMAP Y2H IMAP1 (number of IST) ([1]; HCV protein p7 as bait): 3; Y2H matrices [3, 5]: +
9 | THBS1 |  | NS5A |  | IMAP Y2H IMAP2 (number of IST) ([1]; HCV protein NS5A as bait): 7
10 | CEP63 |  | NS5A |  | IMAP Y2H IMAP2 (number of IST) ([1]; HCV protein NS5A as bait): 1
11 | COL4A2 |  | CORE |  | IMAP Y2H IMAP1 (number of IST) ([1]; HCV protein CORE as bait): 1; Y2H matrices [3, 6]: +
12 | CADPS2 |  | NS5A |  | IMAP Y2H IMAP2 (number of IST) ([1]; HCV protein NS5A as bait): 1
13 | CEP192 | 1 | NS3 | + | 
14 | MEGF8 | 2 | NS3 | + | 
15 | NR4A1 |  |  |  | IMAP Y2H IMAP1 (number of IST) ([1]; HCV protein CORE as bait): 31; IMAP Y2H IMAP1 (number of IST) ([1]; HCV protein E1 as bait): 14; IMAP Y2H IMAP1 (number of IST) ([1]; HCV protein E2 as bait): 6; IMAP Y2H IMAP1 (number of IST) ([1]; HCV protein NS2 as bait): 5; IMAP Y2H IMAP1 (number of IST) ([1]; HCV protein NS4A as bait): 3; IMAP Y2H IMAP1 (number of IST) ([1]; HCV protein NS5B as bait): 8; Y2H matrices [3, 7]: +; Y2H matrices [3, 6]: +; Y2H matrices [3, 8]: +; Y2H matrices [3, 9]: +; Y2H matrices [3, 10]: +; Y2H matrices [3, 11]: +
16 | SBF1 | 1 | NS3 | + | 
17 | SETD2 |  |  |  | IMAP Y2H IMAP1 (number of IST) ([1]; HCV protein CORE as bait): 5; IMAP Y2H IMAP1 (number of IST) ([1]; HCV protein E1 as bait): 2; IMAP Y2H IMAP1 (number of IST) ([1]; HCV protein E2 as bait): 1; IMAP Y2H IMAP1 (number of IST) ([1]; HCV protein NS2 as bait): 1; IMAP Y2H IMAP1 (number of IST) ([1]; HCV protein NS5B as bait): 3; Y2H matrices [3, 7]: +; Y2H matrices [3, 6]: +; Y2H matrices [3, 8]: +; Y2H matrices [3, 9]: +; Y2H matrices [3, 10]: +
18 | GON4L | 1 | NS3 | + | 
19 | NELL2 | 11 | NS3 | + | 
20 | GFAP | 43 | NS3 | + | 
21 | RICS | 3 | NS3 | + | IMAP Y2H IMAP2 (number of IST) ([1]; HCV protein NS3 as bait): 1
22 | TGFB1I1 | 1 | NS3 | + | 
23 | LTBP4 | 2 | NS3 and CORE | + | IMAP Y2H IMAP1 (number of IST) ([1]; HCV protein CORE as bait): 4; Y2H matrices [3, 6]: +
24 | HIVEP2 | 3 | NS3 and CORE | + | IMAP Y2H IMAP2 (number of IST) ([1]; HCV protein CORE as bait): 2; IMAP Y2H IMAP2 (number of IST) ([1]; HCV protein NS3 as bait): 5
25 | TRIM27 | 1 | NS3 and NS2 | + | IMAP Y2H IMAP2 (number of IST) ([1]; HCV protein NS2 as bait): 1
26 | CSNK2B | 3 | NS3 | + | 

Row | Substance | IMAP Y2H IMAP1 (number of IST) ([1]; HCV protein NS3 as bait) | Interaction with viral protein [2] | Y2H matrices [3, 4] | other results
27 | BZRAP1 | 1 | NS3 | + | 
28 | NOTCH1 | 2 | NS3 | + | 
29 | SMYD3 |  | NS5A |  | IMAP Y2H IMAP1 (number of IST) ([1]; HCV protein NS5A as bait): 1; Y2H matrices ([3]; interaction with HCV protein NS5A): +
30 | GAPDH |  | CORE |  | IMAP Y2H IMAP1 (number of IST) ([1]; HCV protein CORE as bait): 1; Y2H matrices [3, 6]: +
31 | SLIT1 | 7 | NS3 | + | 
32 | FLAD1 | 1 | NS3 | + | 
33 | FHL2 |  | NS5A |  | IMAP Y2H IMAP2 (number of IST) ([1]; HCV protein NS5A as bait): 1
34 | VWF | 26 | NS3 and CORE | + | IMAP Y2H IMAP1 (number of IST) ([1]; HCV protein CORE as bait): 2; Y2H matrices [3, 6]: +
35 | SVEP1 | 3 | NS3 | + | 
36 | RGNEF | 1 | NS3 | + | 
37 | CEP152 | 1 | NS3 | + | 
38 | PSME3 | 10 | NS3 | + | 
39 | RNF31 | 1 | NS3 and CORE | + | IMAP Y2H IMAP1 (number of IST) ([1]; HCV protein CORE as bait): 1; Y2H matrices [3, 6]: +
40 | LRRC7 |  | NS3 |  | IMAP Y2H IMAP2 (number of IST) ([1]; HCV protein NS3 as bait): 6
41 | TAF1 | 2 | NS3 | + | 
42 | TUBB2C |  |  |  | IMAP Y2H IMAP1 (number of IST) ([1]; HCV protein NS5B as bait): 1; Y2H matrices [3, 7]: +
43 | JUN | 8 |  | + | IMAP Y2H IMAP1 (number of IST) ([1]; HCV protein E1 as bait): 1; Y2H matrices [3, 8]: +
44 | PDE4DIP | 3 | NS3 | + | 
45 | DOCK7 |  | NS3 |  | IMAP Y2H IMAP2 (number of IST) ([1]; HCV protein NS3 as bait): 2
46 | APOA1 |  | NS3/4A and NS4B and NS2 and NS3 |  | 
47 | MLLT4 | 2 | NS3 | + | 
48 | TMSB4X |  |  |  | IMAP Y2H IMAP1 (number of IST) ([1]; HCV protein E1 as bait): 1; Y2H matrices [3, 8]: +
49 | OBSCN | 1 | NS3 |  | 
50 | AXIN1 |  | NS5A |  | IMAP Y2H IMAP2 (number of IST) ([1]; HCV protein NS5A as bait): 1
51 | CADPS |  | NS5A |  | IMAP Y2H IMAP2 (number of IST) ([1]; HCV protein NS5A as bait): 1
52 | UBQLN1 |  | NS4A |  | IMAP Y2H IMAP1 (number of IST) ([1]; HCV protein NS4A as bait): 2; IMAP Y2H IMAP1 (number of IST) ([1]; HCV protein p7 as bait): 3; Y2H matrices [3, 5]: +; Y2H matrices [3, 11]: +

Row | Substance | IMAP Y2H IMAP1 (number of IST) ([1]; HCV protein NS3 as bait) | Interaction with viral protein [2] | Y2H matrices [3, 4] | other results
53 | CEP250 |  | NS5A |  | IMAP Y2H IMAP2 (number of IST) ([1]; HCV protein NS5A as bait): 15; IMAP Y2H IMAP2 (number of IST) ([1]; HCV protein NS5B as bait): 1
54 | PSMA6 |  |  |  | IMAP Y2H IMAP1 (number of IST) ([1]; HCV protein E2 as bait): 1; Y2H matrices [3, 9]: +
55 | TRIOBP |  |  |  | IMAP Y2H IMAP2 (number of IST) ([1]; HCV protein NS5A as bait): 2
56 | TRIO | 1 | NS3 | + | IMAP Y2H IMAP2 (number of IST) ([1]; HCV protein NS3 as bait): 1
57 | STAT3 | 1 | NS3 | + | 
58 | FBN3 | 2 | NS3 | + | 
59 | ITGB1 |  |  |  | IMAP Y2H IMAP1 (number of IST) ([1]; HCV protein E2 as bait): 1; Y2H matrices [3, 9]: +
60 | VIM | 32 | NS3 | + | 
61 | STAB1 | 4 | NS3 | + | 
62 | MEGF6 |  | CORE |  | IMAP Y2H IMAP1 (number of IST) ([1]; HCV protein CORE as bait): 1; Y2H matrices [3, 6]: +
63 | MAPK7 | 4 | NS3 | + | 
64 | TRIP11 | 1 | NS3 | + | 
65 | ROGDI |  | NS3 |  | IMAP Y2H IMAP2 (number of IST) ([1]; HCV protein NS3 as bait): 1
66 | HNRPK |  |  |  | IMAP Y2H IMAP2 (number of IST) ([1]; HCV protein CORE as bait): 14; IMAP Y2H IMAP2 (number of IST) ([1]; HCV protein NS3 as bait): 1
67 | PARP4 | 8 | NS3 | + | 
68 | CELSR2 | 1 | NS3 | + | 
69 | VCAN | 1 | NS3 | + | 
70 | HOXD8 |  |  |  | IMAP Y2H IMAP1 (number of IST) ([1]; HCV protein CORE as bait): 1; IMAP Y2H IMAP1 (number of IST) ([1]; HCV protein E2 as bait): 1; IMAP Y2H IMAP1 (number of IST) ([1]; HCV protein NS2 as bait): 1; IMAP Y2H IMAP1 (number of IST) ([1]; HCV protein NS4A as bait): 1; IMAP Y2H IMAP1 (number of IST) ([1]; HCV protein NS5B as bait): 1; Y2H matrices [3, 7]: +; Y2H matrices [3, 6]: +; Y2H matrices [3, 9]: +; Y2H matrices [3, 10]: +; Y2H matrices [3, 11]: +
71 | RINT1 | 1 | NS3 | + | 
72 | LAMB2 | 1 | NS3 | + | 
73 | ASXL1 | 1 | NS5A and NS3 | + | 
74 | AGRN |  | CORE |  | IMAP Y2H IMAP1 (number of IST) ([1]; HCV protein CORE as bait): 1; Y2H matrices [3, 6]: +
75 | GAA | 2 | NS3 | + | 
76 | ARNT | 1 | NS3 | + | 
77 | SHARPIN |  | NS5A |  | IMAP Y2H IMAP2 (number of IST) ([1]; HCV protein NS5A as bait): 2; IMAP Y2H IMAP2 (number of IST) ([1]; HCV protein NS5B as bait): 1
78 | NDC80 |  | NS3 |  | IMAP Y2H IMAP2 (number of IST) ([1]; HCV protein NS3 as bait): 1
